Two molecules from PMC6994259 (Nature, 2020) can be followed below.

First the molecules themselves.
B1: Taf12 (natural protein)
chain: MSSNPENSGVNANNNTGTGNADAITGAQQNMVLQPRQLQEMAAKFRTLLTEARNVGETTPRGKELMFQAAKIKQVYDALTLNRRRQQAAQAYNNTSNSNSSNPASIPTENVPNSSQQQQQQQQQTRNNSNKFSNMIKQVLTPEENQEYEKLWQNFQVRHTSIKEKETYLKQNIDRLEQEINKQTDEGPKQQLQEKKIELLNDWKVLKIEYTKLFNNYQNSKKTFYVECARHNPALHKFLQESTQQQRVQQQRVQQQQQQQQQQQQQQQQQQQQQQQRQGQNQRKISSSNSTEIPSVTGPDALKSQQQQQNTITATNNPRGNVNTSQTEQSKAKVTNVNATASMLNNISSSKSAIFKQTEPAIPISENISTKTPAPVAYRSNRPTITGGSAMNASALNTPATTKLPPYEMDTQRVMSKRKLRELVKTVGIDEGDGETVIDGDVEELLLDLADDFVTNVTAFSCRLAKHRKSDNLEARDIQLHLERNWNIRIPGYSADEIRSTRKWNPSQNYNQKLQSITSDKVAAAKNNGNNVASLNTKK

What all share (assay): cryo-EM structure
One experiment addresses Tra1 (S. cerevisiae, UniProt P38811 1-3744).
The next experiment has as its target T1, Spt20 (S. cerevisiae, UniProt P50875 1-604).
T1 sequence: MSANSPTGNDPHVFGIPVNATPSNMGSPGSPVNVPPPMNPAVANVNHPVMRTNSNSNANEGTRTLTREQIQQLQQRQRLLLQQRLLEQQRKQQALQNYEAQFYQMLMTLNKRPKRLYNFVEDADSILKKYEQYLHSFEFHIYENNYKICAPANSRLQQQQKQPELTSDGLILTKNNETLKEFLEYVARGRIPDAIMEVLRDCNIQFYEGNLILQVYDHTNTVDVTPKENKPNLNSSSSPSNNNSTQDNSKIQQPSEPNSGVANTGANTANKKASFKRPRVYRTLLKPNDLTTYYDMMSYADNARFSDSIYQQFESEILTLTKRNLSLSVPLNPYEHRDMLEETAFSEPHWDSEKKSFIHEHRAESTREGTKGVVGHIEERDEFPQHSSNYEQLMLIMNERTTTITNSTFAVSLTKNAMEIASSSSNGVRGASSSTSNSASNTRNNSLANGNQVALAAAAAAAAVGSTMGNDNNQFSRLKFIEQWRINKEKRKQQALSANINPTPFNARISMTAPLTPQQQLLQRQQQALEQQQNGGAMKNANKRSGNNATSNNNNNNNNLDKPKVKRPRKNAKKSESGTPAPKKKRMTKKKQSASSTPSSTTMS

For a further experiment, the target named is T2, Sgf73 (S. cerevisiae, UniProt P53165 1-657).
T2 sequence: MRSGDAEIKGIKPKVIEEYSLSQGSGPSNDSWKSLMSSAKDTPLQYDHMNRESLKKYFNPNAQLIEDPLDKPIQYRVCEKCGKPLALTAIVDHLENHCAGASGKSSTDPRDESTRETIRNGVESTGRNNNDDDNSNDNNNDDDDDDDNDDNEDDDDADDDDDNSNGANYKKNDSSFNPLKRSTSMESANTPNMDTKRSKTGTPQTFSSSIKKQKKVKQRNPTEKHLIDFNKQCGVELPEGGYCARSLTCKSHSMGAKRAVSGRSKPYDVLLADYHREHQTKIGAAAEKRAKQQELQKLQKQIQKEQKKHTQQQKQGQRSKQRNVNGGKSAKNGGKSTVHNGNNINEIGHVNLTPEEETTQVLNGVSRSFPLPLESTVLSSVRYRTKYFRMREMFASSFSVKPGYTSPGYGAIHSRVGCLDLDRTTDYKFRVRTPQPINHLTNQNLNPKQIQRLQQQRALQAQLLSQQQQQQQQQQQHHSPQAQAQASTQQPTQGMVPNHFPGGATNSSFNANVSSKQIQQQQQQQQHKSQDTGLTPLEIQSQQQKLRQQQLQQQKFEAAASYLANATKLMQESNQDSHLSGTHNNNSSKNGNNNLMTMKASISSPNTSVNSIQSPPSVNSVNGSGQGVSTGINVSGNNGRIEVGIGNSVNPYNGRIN

The experiment “Taf12” addresses B1.

Sequence of Tra1 (P38811 whole entry): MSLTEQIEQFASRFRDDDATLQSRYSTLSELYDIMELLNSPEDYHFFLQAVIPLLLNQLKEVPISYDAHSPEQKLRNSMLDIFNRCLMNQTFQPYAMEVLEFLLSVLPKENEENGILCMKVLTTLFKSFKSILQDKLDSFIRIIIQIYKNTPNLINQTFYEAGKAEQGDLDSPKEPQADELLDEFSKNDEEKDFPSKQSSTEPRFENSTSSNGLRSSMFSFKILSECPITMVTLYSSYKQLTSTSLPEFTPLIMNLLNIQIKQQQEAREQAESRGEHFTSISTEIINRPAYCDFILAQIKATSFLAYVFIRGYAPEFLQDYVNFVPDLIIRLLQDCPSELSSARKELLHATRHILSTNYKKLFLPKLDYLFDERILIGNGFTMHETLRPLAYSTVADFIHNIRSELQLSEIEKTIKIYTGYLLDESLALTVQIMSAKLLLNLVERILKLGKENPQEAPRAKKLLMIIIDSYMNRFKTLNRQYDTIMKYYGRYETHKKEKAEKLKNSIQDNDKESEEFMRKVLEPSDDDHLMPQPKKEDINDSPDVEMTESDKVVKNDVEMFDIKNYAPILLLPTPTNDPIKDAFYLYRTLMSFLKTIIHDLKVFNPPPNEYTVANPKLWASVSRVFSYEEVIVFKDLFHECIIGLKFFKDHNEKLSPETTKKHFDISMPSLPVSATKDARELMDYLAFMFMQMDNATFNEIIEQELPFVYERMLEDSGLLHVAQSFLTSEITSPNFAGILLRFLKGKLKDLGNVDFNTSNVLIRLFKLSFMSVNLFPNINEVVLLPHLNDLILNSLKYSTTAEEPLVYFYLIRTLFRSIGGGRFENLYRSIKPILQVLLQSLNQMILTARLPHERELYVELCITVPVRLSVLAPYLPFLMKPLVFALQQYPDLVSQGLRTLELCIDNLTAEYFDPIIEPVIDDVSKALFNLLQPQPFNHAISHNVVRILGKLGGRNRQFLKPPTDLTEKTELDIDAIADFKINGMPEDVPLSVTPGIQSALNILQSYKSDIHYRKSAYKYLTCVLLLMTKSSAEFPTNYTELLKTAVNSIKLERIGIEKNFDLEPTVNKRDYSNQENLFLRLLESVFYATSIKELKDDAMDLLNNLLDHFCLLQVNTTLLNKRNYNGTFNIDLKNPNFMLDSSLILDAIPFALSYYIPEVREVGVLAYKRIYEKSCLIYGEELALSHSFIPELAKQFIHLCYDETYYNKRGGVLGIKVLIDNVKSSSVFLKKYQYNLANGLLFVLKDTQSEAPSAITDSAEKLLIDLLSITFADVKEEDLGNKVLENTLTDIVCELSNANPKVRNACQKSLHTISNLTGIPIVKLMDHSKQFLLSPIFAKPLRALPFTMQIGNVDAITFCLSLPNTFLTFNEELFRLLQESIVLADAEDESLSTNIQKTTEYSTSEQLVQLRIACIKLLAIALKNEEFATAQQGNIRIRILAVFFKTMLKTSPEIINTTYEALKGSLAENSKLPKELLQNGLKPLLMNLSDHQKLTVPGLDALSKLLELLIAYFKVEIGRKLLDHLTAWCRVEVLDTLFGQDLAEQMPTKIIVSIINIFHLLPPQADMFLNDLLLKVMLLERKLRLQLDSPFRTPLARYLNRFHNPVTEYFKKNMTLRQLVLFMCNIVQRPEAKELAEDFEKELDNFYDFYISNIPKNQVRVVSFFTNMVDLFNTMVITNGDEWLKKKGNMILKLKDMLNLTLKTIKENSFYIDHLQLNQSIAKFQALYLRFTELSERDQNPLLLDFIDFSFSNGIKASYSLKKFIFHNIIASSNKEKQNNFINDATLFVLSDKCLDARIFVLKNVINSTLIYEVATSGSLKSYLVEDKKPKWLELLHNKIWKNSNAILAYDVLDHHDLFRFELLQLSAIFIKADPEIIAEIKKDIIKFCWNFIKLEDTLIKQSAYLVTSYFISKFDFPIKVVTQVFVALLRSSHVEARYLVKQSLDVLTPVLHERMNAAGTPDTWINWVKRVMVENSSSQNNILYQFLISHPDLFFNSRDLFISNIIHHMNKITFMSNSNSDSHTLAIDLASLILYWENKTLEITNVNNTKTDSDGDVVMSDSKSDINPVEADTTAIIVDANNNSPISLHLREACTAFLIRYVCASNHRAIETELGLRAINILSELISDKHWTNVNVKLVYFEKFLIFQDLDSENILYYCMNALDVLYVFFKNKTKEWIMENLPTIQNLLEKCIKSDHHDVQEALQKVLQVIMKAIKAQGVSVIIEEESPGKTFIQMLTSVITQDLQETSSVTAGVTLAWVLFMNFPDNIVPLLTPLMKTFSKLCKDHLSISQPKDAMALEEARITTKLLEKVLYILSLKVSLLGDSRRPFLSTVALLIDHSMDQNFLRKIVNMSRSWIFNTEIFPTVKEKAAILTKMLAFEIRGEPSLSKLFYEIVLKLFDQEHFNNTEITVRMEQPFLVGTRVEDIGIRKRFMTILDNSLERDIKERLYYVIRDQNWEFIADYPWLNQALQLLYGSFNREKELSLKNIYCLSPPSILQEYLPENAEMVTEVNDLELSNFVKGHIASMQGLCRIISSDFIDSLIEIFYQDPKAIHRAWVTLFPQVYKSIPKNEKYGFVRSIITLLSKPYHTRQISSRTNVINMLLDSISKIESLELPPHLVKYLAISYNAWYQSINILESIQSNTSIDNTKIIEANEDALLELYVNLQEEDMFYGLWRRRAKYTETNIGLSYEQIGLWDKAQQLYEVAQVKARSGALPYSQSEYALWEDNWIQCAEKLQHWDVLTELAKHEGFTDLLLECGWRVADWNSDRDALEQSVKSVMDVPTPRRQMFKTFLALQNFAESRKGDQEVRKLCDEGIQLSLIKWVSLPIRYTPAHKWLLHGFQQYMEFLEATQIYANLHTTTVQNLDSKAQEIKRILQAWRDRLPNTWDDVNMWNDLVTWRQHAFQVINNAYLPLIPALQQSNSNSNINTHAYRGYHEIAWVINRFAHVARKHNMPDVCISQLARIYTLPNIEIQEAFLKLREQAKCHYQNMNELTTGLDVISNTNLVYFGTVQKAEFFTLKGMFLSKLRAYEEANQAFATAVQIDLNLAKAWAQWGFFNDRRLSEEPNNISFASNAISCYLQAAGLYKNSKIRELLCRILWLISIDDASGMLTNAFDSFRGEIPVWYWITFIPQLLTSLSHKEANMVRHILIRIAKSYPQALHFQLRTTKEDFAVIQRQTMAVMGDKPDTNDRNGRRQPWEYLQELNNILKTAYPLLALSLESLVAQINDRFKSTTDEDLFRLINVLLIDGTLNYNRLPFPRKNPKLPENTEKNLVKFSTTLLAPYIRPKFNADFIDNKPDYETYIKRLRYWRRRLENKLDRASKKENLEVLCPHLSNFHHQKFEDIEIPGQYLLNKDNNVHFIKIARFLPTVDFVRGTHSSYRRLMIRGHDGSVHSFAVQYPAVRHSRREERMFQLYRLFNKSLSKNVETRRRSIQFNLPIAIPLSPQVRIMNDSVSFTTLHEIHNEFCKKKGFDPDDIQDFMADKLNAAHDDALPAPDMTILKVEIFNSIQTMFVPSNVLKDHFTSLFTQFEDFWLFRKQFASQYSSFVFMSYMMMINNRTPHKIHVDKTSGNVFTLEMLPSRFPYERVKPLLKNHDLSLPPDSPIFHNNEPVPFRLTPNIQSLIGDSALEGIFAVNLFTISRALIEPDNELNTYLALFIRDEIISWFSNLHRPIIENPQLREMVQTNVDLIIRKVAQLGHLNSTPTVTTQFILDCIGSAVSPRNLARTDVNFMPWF

Consider B1, for which the binding result with Tra1, with Spt20 and with Sgf73 was “binds” each time.

B2: Ada1 (natural protein)
chain: MSAIQSPAPKPLQPTYPAASPASTNAYMKPGLIGSPAVSNHTEPNNGNNETAEPQGPNQRIDLGAMIEELTSLLGKESWTKYAQIISLFILGKLSRKELSNELELVFSPSAASLEKSNTNHHHSLVRLHNQLLLGIFANSLRENPLGRNGNESSWGFGNGSNNPNNKLKRINKHNSQIEVYKKIVMSLPLNDRNRLKMITKEAGKRGFIFCSVFQARLNNIPKIPIVTNPESLKRVKSNNLKTPLEWSQDIMNGFNVPLASESHSLPDTDSFYLRMVGIAREHGLVGTVDARCVELISLALDQYLKNIIEFTIDTVRYRRKKYSDYYDLNESGLYKSVSEMAADKRDAKIKQLDDDKNEDECADEAKSINNGNNSSKDDIGDISMSSITKAGEAVNEELHENRTISLTNEDIYDSLSIFPNLVEPSGSYYALTNLGLVNDDELVDMKSNIDDLPDFLNEKPTFTPLDERNVGTRHELNWLIKGILTED
Regarding B2, the binding result in the experiment with Taf12 and with Sgf73 was “binds” in each case.
